± gives the uncertainty stated by the source.
Experiment: self-splicing fitness, log relative to wild type (ln ratio); higher = more splicing; Tetrahymena group I intron in knt gene, E. coli kanamycin selection, DiMSum; sequences stand for … in CUCUCU…GGAGGGAAAAGUUAUCAGGCAUGCACCUGGUAGCUAGUCUUUAAACCAAUAGAUUGCAUCGGUUUAAAAGGCAAGACCGUCAAAUUGCGGGAAAGGGGUCAACAGCCGUUCAGUACCAAGUCUCAGGGGAAACUUUGAGAUGGCCUUGCAAAGGGUAUGGUAAUAAGCUGACGGACAUGGUCCUAACCACGCAGCCAAGUCCUAAGUCAACAGAUCUUCUGUUGAUAUGGAUGCAGUUCACAGACUAAAUGUCGGUCGGGGAAGAUGUAUUCUUCUCAUAAGAUAUAGUCGGACCUCUCCUUAAUGGGAGCUAGCGGAUGAAGUGAUGCAACACUGGAGCCGCUGGGAACUAAUUUGUAUGCGAAAGUAUAUUGAUUAGUUUUGGAGUACUCGUGGUCG
Outline: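 Colonies from six replicate transformations of E. coli BL21(DE3) were pooled and amplicon-sequenced on an Illumina HiSeq 2500. The library placed an intron with all eight P1ex-region nucleotides randomised inside the knt kanamycin-resistance gene on pET-22b(+), and cells grew overnight at 37°C or 30°C on LB agar with or without 25 μg/mL kanamycin (plus 100 μg/mL carbenicillin, 50 μM IPTG, 0.2% rhamnose). Fitness is the DiMSum error-weighted combination of wild-type-normalised replicate fold changes, kanamycin versus none.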

Sequence | self-splicing fitness (ln) (30 °C) | self-splicing fitness (ln) (37 °C)
GGUAAGCAAUAUUACGCCUU | -1.49 ± 0.15 | -0.81 ± 0.15
CUUAAGCAAUAUUACGAUUG | -1.68 ± 0.12 | -1.11 ± 0.13
CCCCAGCAAUAUUACGGAGG | -4.83 ± 0.26 | -2.63 ± 0.16
GACAAGCAAUAUUACGUUUU | -2.69 ± 0.076 | -1.97 ± 0.1
GUACAGCAAUAUUACGGUCC | -0.203 ± 0.11 | -0.766 ± 0.13
GGACAGCAAUAUUACGGCUU | -0.36 ± 0.11 | 0.07 ± 0.11
CAUCAGCAAUAUUACGGCGG | -0.364 ± 0.071 | 0.3 ± 0.12
ACAGAGCAAUAUUACGGCGU | -1.24 ± 0.12 | -0.0954 ± 0.11
GAGUAGCAAUAUUACGGGGA | -2.51 ± 0.14 | -2.45 ± 0.2
UCAUAGCAAUAUUACGGGUA | -1.8 ± 0.094 | -1.53 ± 0.079
UAGGAGCAAUAUUACGAUUG | -1.85 ± 0.15 | -0.617 ± 0.16
ACUUAGCAAUAUUACGGGAG | -1.75 ± 0.072 | -1.3 ± 0.085
CACGAGCAAUAUUACGGAAA | -2.33 ± 0.22 | -1.8 ± 0.19
AUGCAGCAAUAUUACGUGCA | -2.07 ± 0.1 | -0.922 ± 0.1
CUUCAGCAAUAUUACGAUAG | -0.458 ± 0.07 | -0.818 ± 0.1
GUUUAGCAAUAUUACGGCUC | 0.0411 ± 0.094 | 0.193 ± 0.12
UAACAGCAAUAUUACGGUGC | -3.42 ± 0.23 | -2.86 ± 0.2
GGAAAGCAAUAUUACGAGCG | -0.482 ± 0.12 | 0.397 ± 0.12
AUCCAGCAAUAUUACGCUUC | -3.58 ± 0.16 | -2.15 ± 0.15
AUAGAGCAAUAUUACGGAAU | -1.26 ± 0.15 | -1.24 ± 0.18
CUAAAGCAAUAUUACGGCUA | -3.85 ± 0.21 | -2.34 ± 0.25
CGGCAGCAAUAUUACGAAAG | -0.748 ± 0.1 | -0.538 ± 0.12
CCAGAGCAAUAUUACGAGUU | -1.94 ± 0.14 | -2.9 ± 0.27
CUGCAGCAAUAUUACGGGGC | -3.94 ± 0.22 | -1.83 ± 0.18
AGUCAGCAAUAUUACGCAAU | -0.997 ± 0.075 | 0.245 ± 0.096
GGAAAGCAAUAUUACGCCGA | -0.608 ± 0.34 | -0.354 ± 0.24

Sequence | self-splicing fitness (ln) (30 °C) | self-splicing fitness (ln) (37 °C)
CAAAAGCAAUAUUACGUCUA | -1.75 ± 0.097 | -0.725 ± 0.083
GUGUAGCAAUAUUACGUCCC | -0.132 ± 0.21 | -0.385 ± 0.23
CUGUAGCAAUAUUACGAAGG | -1.83 ± 0.21 | -2.22 ± 0.3
UUGAAGCAAUAUUACGAAGC | -3.4 ± 0.3 | -2.48 ± 0.49
GCUGAGCAAUAUUACGACUU | -1.64 ± 0.14 | 0.471 ± 0.14
GCAGAGCAAUAUUACGGCGC | -2.3 ± 0.23 | -1.28 ± 0.41
UAGUAGCAAUAUUACGUAGG | -3.19 ± 0.47 | 
GCUGAGCAAUAUUACGCCUU | -1.98 ± 0.31 | -1.48 ± 0.44
AUCAAGCAAUAUUACGAUAA | -1.99 ± 0.11 | -0.292 ± 0.092
CUUAAGCAAUAUUACGUUAC | -2.2 ± 0.19 | -2.67 ± 0.34
GCAUAGCAAUAUUACGAAAC | -2.18 ± 0.12 | -0.684 ± 0.1
CUUUAGCAAUAUUACGCCUG | -0.484 ± 0.11 | -0.204 ± 0.14
GCCAAGCAAUAUUACGUGUG | -1.8 ± 0.07 | -0.823 ± 0.08
CGCUAGCAAUAUUACGCAUA | -3.26 ± 0.21 | -2.36 ± 0.21
CAAGAGCAAUAUUACGUACA | -3.1 ± 0.35 | -1.89 ± 0.26
GUAGAGCAAUAUUACGGAUA |  | -0.969 ± 0.41
ACAGAGCAAUAUUACGUAAC | -2.71 ± 0.11 | -3.27 ± 0.26
CCACAGCAAUAUUACGCAUA | -3.46 ± 0.18 | -2.42 ± 0.19
AGGAAGCAAUAUUACGUGUG | -2.29 ± 0.077 | -1.85 ± 0.095
CACUAGCAAUAUUACGAGGU | -5.22 ± 0.45 | -2.6 ± 0.23
ACUCAGCAAUAUUACGCCGU | -1.24 ± 0.076 | -0.58 ± 0.093
UCCUAGCAAUAUUACGCCUG | -2.87 ± 0.39 | -2.57 ± 0.46
UCCAAGCAAUAUUACGGAUG | -3.77 ± 0.13 | -3.2 ± 0.25
GUUUAGCAAUAUUACGGCAA | -0.678 ± 0.14 | -1.03 ± 0.13
AGUUAGCAAUAUUACGUGAC | -2.66 ± 0.24 | -2.9 ± 0.33
UGACAGCAAUAUUACGCGCC | -1.63 ± 0.12 | -0.153 ± 0.15

Sequence | self-splicing fitness (ln) (30 °C) | self-splicing fitness (ln) (37 °C)
GCUCAGCAAUAUUACGCGGA | -2.01 ± 0.26 | -2.63 ± 0.28
UACUAGCAAUAUUACGUUUA | -2.47 ± 0.16 | -1.05 ± 0.12
GUGUAGCAAUAUUACGUCUG | -1.08 ± 0.17 | -1.74 ± 0.27
CAAAAGCAAUAUUACGCGUA | -2.01 ± 0.12 | -1.32 ± 0.11
UUCAAGCAAUAUUACGUGUC | -2.84 ± 0.11 | -2.45 ± 0.14
ACGGAGCAAUAUUACGUAAC | -3.72 ± 0.37 | -1.66 ± 0.22
CCUCAGCAAUAUUACGGUUU | -3.37 ± 0.13 | -2.73 ± 0.16
ACUUAGCAAUAUUACGCUAA | -2.99 ± 0.39 | -3.09 ± 0.29
GACAAGCAAUAUUACGGCCG | -0.239 ± 0.14 | -0.53 ± 0.22
CAGGAGCAAUAUUACGACAG | -0.986 ± 0.27 | -1.19 ± 0.27
GCUGAGCAAUAUUACGGAAG | -2.41 ± 0.24 | -0.395 ± 0.17
AGCCAGCAAUAUUACGUUCG | -3.46 ± 0.19 | -2.48 ± 0.22
UCCGAGCAAUAUUACGUGAU | -4.03 ± 0.4 | -1.91 ± 0.41
UCGUAGCAAUAUUACGGAGG | -2.53 ± 0.27 | -3.14 ± 0.3
GGUAAGCAAUAUUACGGGGU |  | -2.57 ± 0.25
CCAAAGCAAUAUUACGCCUU | -3.62 ± 0.34 | -2.88 ± 0.32
AGGCAGCAAUAUUACGGACU | -0.344 ± 0.079 | 0.146 ± 0.093
ACGUAGCAAUAUUACGGACU | -2.66 ± 0.3 | -0.29 ± 0.24
CACAAGCAAUAUUACGAGCC | -4.37 ± 0.42 | -2.17 ± 0.4
CUGGAGCAAUAUUACGGCGU | -2.77 ± 0.18 | 
UGACAGCAAUAUUACGAUGC | -3.94 ± 0.28 | -2.72 ± 0.28
GUCCAGCAAUAUUACGAGUG | -2.52 ± 0.11 | -1.59 ± 0.1
GGCUAGCAAUAUUACGUGUU | -1.02 ± 0.058 | 0.41 ± 0.063
UCUCAGCAAUAUUACGUGUC | -3.41 ± 0.14 | -3.2 ± 0.17
